# Values of other authors as cited in article PMC7510350.
# Tests used:
# IscA (Escherichia coli) = IscA (Escherichia coli) (UniProt P0AAC8)
# SufA (Escherichia coli) = SufA (Escherichia coli) (UniProt P77667)
# Chain of UniProt P77667 (P77667 whole entry): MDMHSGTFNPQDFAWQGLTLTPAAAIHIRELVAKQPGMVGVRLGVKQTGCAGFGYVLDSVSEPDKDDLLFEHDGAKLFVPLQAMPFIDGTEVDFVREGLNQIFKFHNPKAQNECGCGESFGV
# Chain of UniProt P0AAC8 (P0AAC8 whole entry): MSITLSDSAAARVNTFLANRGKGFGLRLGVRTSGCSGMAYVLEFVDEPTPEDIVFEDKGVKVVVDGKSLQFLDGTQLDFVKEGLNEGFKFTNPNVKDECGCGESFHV
substance,measurement,setting,value
ErpA (from UniProt P0ACC3),Kd,IscA (Escherichia coli),40 µM
same,Kd,SufA (Escherichia coli),902 µM
